Measurements: the supplement of paper PMC6755084

tested on: F1*sub RNA substrate (template-directed ligation); experiment: fraction ligated after 30 min (ligated reads / total reads); higher = more ligase activity; sequences stand for … in GAGACCGCAACTGAAAAGTTGT…AGTTCTGCACGTAGAAGCAAAAGGC; conditions: 42 °C
Summary of the method: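 Oligo-pool templates underwent PCR amplification, T7 transcription and gel purification to yield ribozyme variants. Gel-separated ligated and unligated bands were converted to complementary DNA with barcoded primers and sequenced on a MiSeq, keeping core bases of quality ≥20. The ratio of ligated reads to total reads gave the fraction ligated for every variant.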

Sequence | fraction ligated
ATCACTTGTCTAAGAACTTTGGATGGGTTGA [3d175] | 0.728
TACACTTTCGTAAGACACTTTGGTGGGTTGA [3d596] | 0.0156
TATCACTTGTCGAAGCACTTTGGATGGGTTG [3d1934] | 0.783
TATCACTTGTCGAGACACTTTGATGGGTTGA [3d1909] | 0.74
TACACTTGTCGTAAGACATTTGGATGGTTGA [3d711] | 0.113
TATCACTTGTGAAGACACTTTGGATGGTTGA [3d1728] | 0.243
TTCACTTGTCGTAAGAACTTGGATGGGTTGA [3d463] | 0.226
TTACTTGTCGTAAGACACTTTGGATGGGTTG [3d297] | 0.299
ATCACTTGTCGTAAGAACTTTGGATGGGTTGA [2d15] | 0.821
ATACTTGTCGTAAGCACTTTGGATGGGTTGA [3d56] | 0.279
TATCATTGTCGAAGACACTTTGGATGGGTTA [3d1212] | 0.475
TATACTTGTCGTAGCACTTTGGATGGGTTGA [3d872] | 0.787
TATACTTGTCTAAACACTTTGGATGGGTTGA [3d845] | 0.791
TATCACTTTCGTAAGACACTTTGGATGGGTTA [2d161] | 0.751
TATACTTGTCGTAAGCACTTTGGATGGTTGA [3d900] | 0.0214
TATCATTGTCTAAGACACTTGGATGGGTTGA [3d1194] | 0.78
TATACTTGTCGAAACACTTTGGATGGGTTGA [3d858] | 0.756
ATCACTTGTGTAAGCACTTTGGATGGGTTGA [3d160] | 0.854
TATCATTGTCGTAAGAACTTGGATGGGTTGA [3d1248] | 0.831
TATCACTTGTCTAAGAATTTGGATGGGTTGA [3d1856] | 0.794
ATCACTTGTCGAAACACTTTGGATGGGTTGA [3d186] | 0.784
TATCACTTGTCGTAAGACATTGATGGGTTGA [3d2208] | 0.778
TATCACTTGTCGTAAGACACTTGGATGGGTTG [2d282] | 0.777

Sequence | fraction ligated
ATACTTGTCGAAGACACTTTGGATGGGTTGA [3d53] | 0.268
TATCACTTGTCGAAGACTTTGGATGGGTTGA [3d1925] | 0.784
TACACTTGTGTAAGACACTTTGGATGGGTTA [3d630] | 0.0333
TATCACTGTCGAAACACTTTGGATGGGTTGA [3d1373] | 0.83
TATCACTTGTCGTAAGACCTTTGGATGGTTG [3d2204] | 0.139
TACACTTGTCGTAAGACACTTGGTGGGTTGA [3d716] | 0.0903
TATCACTTTCGTAAGACATTTGGTGGGTTGA [3d1556] | 0.284
TACACTTGTGTAAACACTTTGGATGGGTTGA [3d620] | 0.0848
ATCACTTGTCGTAAGACACTTTGTGGGTTGA [3d261] | 0.0128
TATCACTTGTGTAAGAACTTGGATGGGTTGA [3d1765] | 0.84
TATACTTGTCGTAAGACACTTTGGTGGGTTG [3d941] | 0.0139
ATCACTTGTCGTAAGCATTTGGATGGGTTGA [3d223] | 0.731
TCACTTGTCGTAAGACACTTTGGATGGGTTGA [2d1] | 0.796
TATCTTGTGTAAGACACTTTGGATGGGTTGA [3d742] | 0.867
TATCACTTTCGTAAGACACTGGATGGGTTGA [3d1561] | 0.774
TATCACTTGTCGTAAGAATTTGGATGGGTTGA [2d254] | 0.8
TATCACTTGTCGTAAGACCTTTGATGGGTTA [3d2194] | 0.0671
TATCACTTGGTAAGACACTTTGGTGGGTTGA [3d1594] | 0.047
TATCACTTGTGTAAGACACTTGGTGGGTTGA [3d1788] | 0.0212
TATCACTTGCGTAAGACACTTTGGATGGGTTGA [1d9] | 0.85
TATCCTTGTCGTAGACACTTGGATGGGTTGA [3d1048] | 0.782
TATCACTGTCGTAAGACACTTTGGATGGGTTGA [1d7] | 0.806
TATCATTTCGTAAGACACTTTGGATGGGTTG [3d1155] | 0.769

Sequence | fraction ligated
TATCACTTGTCGTAAGACACTTGGTGGGTTA [3d2246] | 0.0114
TATCACTTGTCAAACACTTTGGATGGGTTGA [3d1811] | 0.802
TCACTTGTCGTAAGACACTTGGATGGGTTGA [3d17] | 0.419
ATCACTTGTCGAAGACATTTGGATGGGTTGA [3d190] | 0.762
TTCACTTGTCGAGACACTTTGGATGGGTTGA [3d416] | 0.206
TATCCTTTCGTAGACACTTTGGATGGGTTGA [3d971] | 0.766
TACACTTGTGTAAGACACTTTGGATGGTTGA [3d629] | 0.141
TATACTTGTCGTAAGACACTGGATGGGTTGA [3d925] | 0.74
ACACTTGTCGTAAGACACTTTGGAGGGTTGA [3d42] | 0.115
TACACTGCGTAAGACACTTTGGATGGGTTGA [3d568] | 0.177
TATCATTGTCGTAGACACTTTGGTGGGTTGA [3d1222] | 0.356
TATCACTTGTCGTAAACCTTTGGATGGGTTA [3d2072] | 0.746
TTCCTTGCGTAAGACACTTTGGATGGGTTGA [3d300] | 0.779
TATCTTGTCGTAAGACACTTTGGATGGTTGA [3d755] | 0.155
TATCACTTGTCGTAAACACTTTGGAGGGTTGA [2d240] | 0.0926
TTCACGTCGTAAGACACTTTGGATGGGTTGA [3d336] | 0.658
TATCCTTGTCTAAGCACTTTGGATGGGTTGA [3d1018] | 0.765
TTCCTTGTCGTAAGACACTTTGATGGGTTGA [3d311] | 0.595
ATCACTTGTCGTAAGCACTTTGGTGGGTTGA [3d226] | 0.0296
ATCACTTGCGTAGACACTTTGGATGGGTTGA [3d143] | 0.818
TATCACTTGTCGTAAGACACTTGGAGGTTGA [3d2248] | 0.00668
TATCACTGCGTAAGACATTTGGATGGGTTGA [3d1335] | 0.854
TATCACTTGCGAAGACACTTTGGATGGGTTA [3d1624] | 0.733

Sequence | fraction ligated
ATCACTTTCGTAAGACACTTTGGAGGGTTGA [3d136] | 0.0337
TACACTGTCGTAAGACACTTTGGATGGGTTGA [2d50] | 0.432
TATCACGTCGAAGACACTTTGGATGGGTTGA [3d1297] | 0.781
TACACTTGTGTAAGACACTTTGGTGGGTTGA [3d627] | 0.134
TATACTTGTCTAAGACACTTGGATGGGTTGA [3d850] | 0.766
TATCACTTGTCGTAAGAACTTTGATGGGTTG [3d2171] | 0.726
TTACTTGTCGTAAGACACTTTGGATGGGTTA [3d296] | 0.0531
TATCATTGTGTAAACACTTTGGATGGGTTGA [3d1175] | 0.82
TTCACTTGTCGTAAGCACTTGGATGGGTTGA [3d455] | 0.231
TATACTTTCGTAAGACACTTTGGATGGGTTG [3d811] | 0.145
TATCACTTGTCGTAACCTTTGGATGGGTTGA [3d1994] | 0.821
TATCACTTGTCGTAGACACTTTGGATGGTTGA [2d231] | 0.678
TATCACTTGTCGAAGAACTTTGATGGGTTGA [3d1937] | 0.796
TATCACTTGCGTAAGACACTTGGAGGGTTGA [3d1684] | 0.0856
ATCACTTGTGTAAGACACTTTGGATGGGTTGA [2d9] | 0.853
TTCCTGTCGTAAGACACTTTGGATGGGTTGA [3d298] | 0.746
TATCACTTGTCGTAAGACACTTGGATGGTTG [3d2252] | 0.036
ATCACTTGTCGTAAGCCTTTGGATGGGTTGA [3d222] | 0.744
TAACTTGTCGTAAGACACTTTGGTGGGTTGA [3d523] | 0.0256
TACACTTGTGTAAGACATTTGGATGGGTTGA [3d624] | 0.392
TATCCTTGTCGTAGACACTTTGGATGGGTTG [3d1054] | 0.786
TTCACTTGTCTAAGACACTTTGGATGGGTTA [3d414] | 0.344
TATCACTTGTGTAGACACTTGGATGGGTTGA [3d1737] | 0.826

Sequence | fraction ligated
TATCACTTTCGTAAGACATTGGATGGGTTGA [3d1554] | 0.791
TATCACTTGTCGTAAGAATTTGATGGGTTGA [3d2153] | 0.757
TATCACTTTCGTAAGACATTTGGATGGGTTA [3d1559] | 0.778
TCACTTGTCGTAAGACACTTTGGATGGGTTA [3d22] | 0.427
TATACTTGTCGTAAGAACTTTGGATGGTTGA [3d908] | 0.0441
TATCACTTTGAAGACACTTTGGATGGGTTGA [3d1465] | 0.819
TATCCTTGCGTAAGACACTTTGGAGGGTTGA [3d996] | 0.0215
TATCCTTTCGTAAGACACTTTGGAGGGTTGA [3d980] | 0.0203
TATCACTTTCGTAGACACTTTGGTGGGTTGA [3d1514] | 0.0546
ATCACTTGTCGTAAGAACTTTGATGGGTTGA [3d233] | 0.533
TATCACTTGTCGTAAGACACTTGGTGGGTTGA [2d278] | 0.0691
ACACTTGTCGTAAGACACTTTGGATGGGTTA [3d44] | 0.217
ATCACTTGTGAAGACACTTTGGATGGGTTGA [3d157] | 0.815
GGTTATCACTTGTCGTAAGACACTTTGGATGTGA [s37] | 0
TACACTTGTCGTAAGACACTTTGGGGGTTGA [3d727] | 0.0616
TATCATTGTCTAAGACACTTTGGATGGGTTGA [2d113] | 0.785
TAACTTGTCGTAGACACTTTGGATGGGTTGA [3d515] | 0.177
TATCACTTTCGTAAGACACTTTGTGGGTTGA [3d1569] | 0.0262
TATCACTTGTCGTAAGCACTTTATGGGTTGA [3d2135] | 0.134
TATCACTTGTCGTAAACCTTGGATGGGTTGA [3d2067] | 0.783
